In patent US12630600B2 (MEDIMMUNE LIMITED, priority 2022, dated 2026):
Starred links: 1 amine or outer side, 2 acyl side, 3 side chain; linkers in the order of their positions; H or OH if unused. Non-standard residues stand in square brackets, D forms with d. Groups on a side chain read outwards from the residue. Primed or numbered codes have the meaning given here. No end group written: not given here. *: point of attachment. C20 diacid = O=C(O)CCCCCCCCCCCCCCCCCCC(=O)*; C18 diacid = O=C(O)CCCCCCCCCCCCCCCCC(=O)*; γGlu = O=C(O)[C@H](CCC(=O)[*:2])N[*:1]; Palmitoyl = CCCCCCCCCCCCCCCC(=O)*; αMeF = C[C@](N)(Cc1ccccc1)C(=O)O; Myristoyl = CCCCCCCCCCCCCC(=O)*; PEG2′ = polyethylene glycol 2; αMeS = C[C@](N)(CO)C(=O)O; AEEA = NCCOCCOCC(=O)O; Aib = CC(C)(N)C(=O)O

B1: Peptide 408 (peptide)
peptide: H[Aib]QGTFTSDVSK[αMeF]LDTK([AEEA-AEEA-γGlu-γGlu-C20 diacid])RAQDFVRWLEA[Aib]G-OH
modifications: N-terminus assumed
SMILES: CC(C)C[C@H](NC(=O)[C@H](Cc1c[nH]c2ccccc12)NC(=O)[C@H](CCCNC(=N)N)NC(=O)[C@@H](NC(=O)[C@H](Cc1ccccc1)NC(=O)[C@H](CC(=O)O)NC(=O)[C@H](CCC(N)=O)NC(=O)[C@H](C)NC(=O)[C@H](CCCNC(=N)N)NC(=O)[C@H](CCCCNC(=O)COCCOCCNC(=O)COCCOCCNC(=O)CC[C@H](NC(=O)CC[C@H](NC(=O)CCCCCCCCCCCCCCCCCCC(=O)O)C(=O)O)C(=O)O)NC(=O)[C@@H](NC(=O)[C@H](CC(=O)O)NC(=O)[C@H](CC(C)C)NC(=O)[C@](C)(Cc1ccccc1)NC(=O)[C@H](CCCCN)NC(=O)[C@H](CO)NC(=O)[C@@H](NC(=O)[C@H](CC(=O)O)NC(=O)[C@H](CO)NC(=O)[C@@H](NC(=O)[C@H](Cc1ccccc1)NC(=O)[C@@H](NC(=O)CNC(=O)[C@H](CCC(N)=O)NC(=O)C(C)(C)NC(=O)[C@@H](N)Cc1c[nH]cn1)[C@@H](C)O)[C@@H](C)O)C(C)C)[C@@H](C)O)C(C)C)C(=O)N[C@@H](CCC(=O)O)C(=O)N[C@@H](C)C(=O)NC(C)(C)C(=O)NCC(=O)O
B2: Peptide 407 (peptide)
peptide: H[Aib]QGTFTSDVSK[αMeF]LDTK([AEEA-AEEA-γGlu-C20 diacid])RAQDFVRWLEA[Aib]G-OH
modifications: N-terminus assumed
SMILES: CC(C)C[C@H](NC(=O)[C@H](Cc1c[nH]c2ccccc12)NC(=O)[C@H](CCCNC(=N)N)NC(=O)[C@@H](NC(=O)[C@H](Cc1ccccc1)NC(=O)[C@H](CC(=O)O)NC(=O)[C@H](CCC(N)=O)NC(=O)[C@H](C)NC(=O)[C@H](CCCNC(=N)N)NC(=O)[C@H](CCCCNC(=O)COCCOCCNC(=O)COCCOCCNC(=O)CC[C@H](NC(=O)CCCCCCCCCCCCCCCCCCC(=O)O)C(=O)O)NC(=O)[C@@H](NC(=O)[C@H](CC(=O)O)NC(=O)[C@H](CC(C)C)NC(=O)[C@](C)(Cc1ccccc1)NC(=O)[C@H](CCCCN)NC(=O)[C@H](CO)NC(=O)[C@@H](NC(=O)[C@H](CC(=O)O)NC(=O)[C@H](CO)NC(=O)[C@@H](NC(=O)[C@H](Cc1ccccc1)NC(=O)[C@@H](NC(=O)CNC(=O)[C@H](CCC(N)=O)NC(=O)C(C)(C)NC(=O)[C@@H](N)Cc1c[nH]cn1)[C@@H](C)O)[C@@H](C)O)C(C)C)[C@@H](C)O)C(C)C)C(=O)N[C@@H](CCC(=O)O)C(=O)N[C@@H](C)C(=O)NC(C)(C)C(=O)NCC(=O)O
B3: Peptide 409 (peptide)
peptide: H[Aib]QGTFTSDVSK[αMeF]LDTK([AEEA-AEEA-γGlu-C18 diacid])RARDFVAWLL[Aib]TE-OH
modifications: N-terminus assumed
SMILES: CC(C)C[C@H](NC(=O)[C@H](Cc1c[nH]c2ccccc12)NC(=O)[C@H](C)NC(=O)[C@@H](NC(=O)[C@H](Cc1ccccc1)NC(=O)[C@H](CC(=O)O)NC(=O)[C@H](CCCNC(=N)N)NC(=O)[C@H](C)NC(=O)[C@H](CCCNC(=N)N)NC(=O)[C@H](CCCCNC(=O)COCCOCCNC(=O)COCCOCCNC(=O)CC[C@H](NC(=O)CCCCCCCCCCCCCCCCC(=O)O)C(=O)O)NC(=O)[C@@H](NC(=O)[C@H](CC(=O)O)NC(=O)[C@H](CC(C)C)NC(=O)[C@](C)(Cc1ccccc1)NC(=O)[C@H](CCCCN)NC(=O)[C@H](CO)NC(=O)[C@@H](NC(=O)[C@H](CC(=O)O)NC(=O)[C@H](CO)NC(=O)[C@@H](NC(=O)[C@H](Cc1ccccc1)NC(=O)[C@@H](NC(=O)CNC(=O)[C@H](CCC(N)=O)NC(=O)C(C)(C)NC(=O)[C@@H](N)Cc1c[nH]cn1)[C@@H](C)O)[C@@H](C)O)C(C)C)[C@@H](C)O)C(C)C)C(=O)N[C@@H](CC(C)C)C(=O)NC(C)(C)C(=O)N[C@H](C(=O)N[C@@H](CCC(=O)O)C(=O)O)[C@@H](C)O
B4: Peptide 35 (peptide)
peptide: H[Aib]QGTFTSDVSK[αMeF]LDTK([AEEA-AEEA-γGlu-C18 diacid])RAQDFVQWLL[Aib]T-OH
modifications: N-terminus assumed
SMILES: CC(C)C[C@H](NC(=O)[C@H](Cc1c[nH]c2ccccc12)NC(=O)[C@H](CCC(N)=O)NC(=O)[C@@H](NC(=O)[C@H](Cc1ccccc1)NC(=O)[C@H](CC(=O)O)NC(=O)[C@H](CCC(N)=O)NC(=O)[C@H](C)NC(=O)[C@H](CCCNC(=N)N)NC(=O)[C@H](CCCCNC(=O)COCCOCCNC(=O)COCCOCCNC(=O)CC[C@H](NC(=O)CCCCCCCCCCCCCCCCC(=O)O)C(=O)O)NC(=O)[C@@H](NC(=O)[C@H](CC(=O)O)NC(=O)[C@H](CC(C)C)NC(=O)[C@](C)(Cc1ccccc1)NC(=O)[C@H](CCCCN)NC(=O)[C@H](CO)NC(=O)[C@@H](NC(=O)[C@H](CC(=O)O)NC(=O)[C@H](CO)NC(=O)[C@@H](NC(=O)[C@H](Cc1ccccc1)NC(=O)[C@@H](NC(=O)CNC(=O)[C@H](CCC(N)=O)NC(=O)C(C)(C)NC(=O)[C@@H](N)Cc1c[nH]cn1)[C@@H](C)O)[C@@H](C)O)C(C)C)[C@@H](C)O)C(C)C)C(=O)N[C@@H](CC(C)C)C(=O)NC(C)(C)C(=O)N[C@H](C(=O)O)[C@@H](C)O
B5: Peptide 140 (peptide)
peptide: H[Aib]QGTFTSDVSK[αMeF]LDTK([AEEA-AEEA-γGlu-C18 diacid])RAQDFVRWLLE[Aib]G-OH
modifications: N-terminus assumed
SMILES: CC(C)C[C@H](NC(=O)[C@H](Cc1c[nH]c2ccccc12)NC(=O)[C@H](CCCNC(=N)N)NC(=O)[C@@H](NC(=O)[C@H](Cc1ccccc1)NC(=O)[C@H](CC(=O)O)NC(=O)[C@H](CCC(N)=O)NC(=O)[C@H](C)NC(=O)[C@H](CCCNC(=N)N)NC(=O)[C@H](CCCCNC(=O)COCCOCCNC(=O)COCCOCCNC(=O)CC[C@H](NC(=O)CCCCCCCCCCCCCCCCC(=O)O)C(=O)O)NC(=O)[C@@H](NC(=O)[C@H](CC(=O)O)NC(=O)[C@H](CC(C)C)NC(=O)[C@](C)(Cc1ccccc1)NC(=O)[C@H](CCCCN)NC(=O)[C@H](CO)NC(=O)[C@@H](NC(=O)[C@H](CC(=O)O)NC(=O)[C@H](CO)NC(=O)[C@@H](NC(=O)[C@H](Cc1ccccc1)NC(=O)[C@@H](NC(=O)CNC(=O)[C@H](CCC(N)=O)NC(=O)C(C)(C)NC(=O)[C@@H](N)Cc1c[nH]cn1)[C@@H](C)O)[C@@H](C)O)C(C)C)[C@@H](C)O)C(C)C)C(=O)N[C@@H](CC(C)C)C(=O)N[C@@H](CCC(=O)O)C(=O)NC(C)(C)C(=O)NCC(=O)O

Legend:
[1] = target: human glucagon receptor (human, UniProt P47871); assay: cell-based or functional assay
[2] = target: human GLP-1 receptor (human, UniProt P43220); assay: cell-based or functional assay

| Binder | cAMP production EC50 [1] | cAMP production EC50 [2] |
| --- | --- | --- |
| H[Aib]QGTFTSDVSK[αMeF]LDTK([AEEA-AEEA-γGlu-γGlu-C20 diacid])RARDFVQWLLE[Aib]G-NH2 [Peptide 458] | 0.385 nM | – |
| H[αMeS]QGS[αMeF]TSDVSKILDSK([PEG2′-PEG2′-γGlu-Palmitoyl])AAQD[αMeF]VQ[Aib]IINT-NH2 [Peptide 134] | 0.015 nM | 0.000592 nM |
| B1 | 0.828 nM | 0.37 nM |
| B2 | 0.462 nM | 0.209 nM |
| B3 | 0.203 nM | 0.0227 nM |
| H[αMeS]QGS[αMeF]TSDVSKILDSK([PEG2′-PEG2′-γGlu-Myristoyl])AAQD[αMeF]VQ[Aib]IINT-NH2 [Peptide 135] | 0.015 nM | 0.000407 nM |
| B4 | 0.335 nM | – |
| B5 | – | 0.0227 nM |
